# Assay results published in patent US20050123936A1, “Method, composition, and kit to design, evaluate, and/or test compounds that modulate regulatory factor binding to nucleic acids” (priority 2003, published 2005).
# “Also recorded” adds a separate entry of the source. Ends that are not written are not given here.
# Assays:
# [1] = target: T1, Exd (Drosophila melanogaster, UniProt P40427); assay: Example 7 EMSA: recruitment of Exd by linker compounds; format: binding; settings: for positioning of the test compound with respect to its hydrophobic docking site on the surface of Exd: short linkers (<4 Å when fully extended); for ability to recruit Exd: 4° C.
# T1 construct: comprising the homeodomain and the extended fourth helix (residues 238-324); made in house
# T1 sequence (P40427 238-324): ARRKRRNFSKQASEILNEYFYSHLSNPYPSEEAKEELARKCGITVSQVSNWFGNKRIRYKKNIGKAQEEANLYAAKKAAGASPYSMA
# Description: The assays were performed with 50 nM of the conjugate pre-incubated with target DNA (thus to bind the anchor moiety to the target nucleic acid) followed by the addition and incubation with Exd.
# To determine the effects of longer linker on binding, the ability of compounds using linkers 1, 2 and 4 to recruit Exd at three different temperatures was investigated.
# [2] = target: T2, Extradenticle (Exd), homeodomain plus extended fourth helix (Drosophila) (UniProt P40427); assay: EMSA; settings: apparent, with polyamide-FYPWM conjugate
# T2 sequence: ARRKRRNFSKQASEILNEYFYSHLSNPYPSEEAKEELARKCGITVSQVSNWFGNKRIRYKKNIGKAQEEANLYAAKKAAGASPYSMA
# [3] = target: T3, extradenticle (Exd) protein (residues 238-324) (Drosophila melanogaster, UniProt P40427); assay: EMSA: recruitment of Exd to its cognate DNA site by polyamides 1-3; format: binding; settings: saturating 50 nM compound; Exd 0-100 nM; listed as compound 3
# T3 construct: comprising the homeodomain and the extended fourth helix (residues 238-324); made in house
# T3 sequence (P40427 238-324): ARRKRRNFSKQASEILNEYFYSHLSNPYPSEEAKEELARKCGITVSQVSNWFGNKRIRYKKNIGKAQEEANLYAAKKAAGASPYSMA
# Source text: Protein expression: Drosophila extradenticle (Exd) protein comprising the homeodomain and the extended fourth helix (residues 238-324), as well as ultrabithorax (Ubx) protein homeodomain (residues 233-313 of the Ubx isoform IVa) were expressed and purified after Passner & Aggarwal. The purified proteins Exd and Ubx were used for EMSA studies as described below.
# For the templates, the DNA oligonucleotides depicted in FIGS. 2a, 2b, 2c, and 2d were used, SEQ. ID NOS: 5, 6, 7, and 8, respectively. The DNA upper strand was annealed with the respective matching lower strand and both strands were 5′-labeled with γ-^32P-ATP and polynucleotide kinase, using standard procedures.
# Gel-shift experiments: The master mix contained 50% BSA/50% glycerol, reaction buffer (150 mM potassium glutamate, 50 mM HEPES pH 7.0, 1 mM DTT, and 5′-end labeled DNA (^32P) The final concentrations in the samples were 100 ng/μL BSA and 10% glycerol. Polyamides were kept in subdued lighting whenever possible. Upon addition of the polyamide to 1 pM DNA, the samples were incubated at 25 °C. for 30 minutes in a 20 μL reaction. Next, Exd was added to the samples and incubated for 1 hour at 4° C. A 9% acrylamide/3% glycerol gel was pre-run for 15 min prior to loading. In each lane 15 μL of a 20 μL reaction were loaded while the gel was running to prevent the samples from being diluted. The gels were run at 4° C./185 V. Gels were dried, exposed to a phosphorimager screen, and visualized using a Molecular Dynamics phosphorimager.
# FIGS. 3a and 3b: EMSA studies with polyamides 1-3, Exd and Ubx. In FIG. 3a, each polyamide binds and decreases the mobility of free DNA (lanes 2-18). […] In lanes 2-6,8-12, 14-18, Exd was added in following concentrations: 0, 3, 10, 30, 100 nM. Lanes 19 and 20 contained DNA bearing the Exd-Ubx binding site that was used in X-ray crystal structure determination (see methods above for sequence). In the reaction shown in lane 20, 275 nM Ubx and 30 nM Exd were incubated with DNA. […]
# [4] = test system: TGGCCA mismatch site on 250-bp EcoRI/PvuII restriction fragment from plasmid pDEH9; assay: Quantitative DNase I footprint titration, mismatch site TGGCCA; format: binding
# Description: (§1) Quantitative DNaseI footprinting can be used to determine the equilibrium association constants for binding to match and mismatch sites. Footprinting experiments are generally performed on 3′- and/or 5′-^32P end restriction fragments derived from plasmids. 3′-shifted cleavage patterns are consistent with location of the polyamide in the minor groove. Typical reaction conditions are: 10 mM Tris-HCl, 10 mM KCl, 10 mM MgCl2, 5 mM CaCl2, pH 7.0, and 22° C. See Brenowitz et al. (1986). Methods Enzymol. 130:132-181; Fox & Waring (1984) Nucleic Acids Res. 12:9271-9285; and Brenowitz et al. (1986) Proc. Natl. Acad. Sci. U.S.A. 83: 8462-8466.
# (§2) DNase I Footprinting: Dissociation constants for the DNA binding of compounds 1, 2 and 3 were obtained following published protocols. All reactions were carried out in 400 μL total volume employing 20 kcpm of a 3′-radiolabelled 250-bp restriction fragment from the plasmid pDEH9 (FIG. 1a) (SEQ. ID. NO: 4). No carrier DNA was used in the equilibration, and the solutions were allowed to equilibrate for 12 h at 22° C. in TKMC buffer (10 mM TRIS, 10 mM KCl, […], 5 mM CaCl2 pH 7.0) prior to the DNase I digestion. Reaction products (8 kcpm) were resolved on denaturing 8% polyacrylamide sequencing gels run at 55 W.
# (§3) FIGS. 1b, 1c, and 1d are quantitative DNAse I footprint titration experiments for compounds 1, 2 and 3 on the 3′^−32 P-labeled 250-bp EcoRI/PvuII restriction fragment from the plasmid pDEH9. Lane 1: Intact DNA. Lane 2: A-reaction. Lane 3: G-reaction. Lane 4: DNAse 1 standard.
# (§4) The DNA-binding properties of the compounds 1-3 were investigated by quantitative DNase 1 footprinting assays. The equilibrium binding constants of each of the compounds for a matched versus three single base pair mismatch sites is compiled in Table 1. The lower strand sequence is shown in the header. Mismatched base pairs are underlined. The residue under the YPWM peptide is in bold. Relative specificities are given in square brackets.
# [5] = test system: AGCTCA mismatch site on 250-bp EcoRI/PvuII restriction fragment from plasmid pDEH9; assay: Quantitative DNase I footprint titration, mismatch site AGCTCA; format: binding
# Description: as §1, §2, §3, §4
# [6] = test system: TGGGCA mismatch site on 250-bp EcoRI/PvuII restriction fragment from plasmid pDEH9; assay: Quantitative DNase I footprint titration, mismatch site TGGGCA; format: binding
# Description: as §1, §2, §3, §4
# [7] = target: TGGTCA matched site on 250-bp EcoRI/PvuII restriction fragment from plasmid pDEH9; assay: Quantitative DNase I footprint titration, matched site; format: binding; settings: 12 h at 22° C., TKMC buffer pH 7.0, read-out: Equilibrium Dissociation Constants Kd, TGGTCA
# Description: as §1
# DNase I Footprinting: Dissociation constants for the DNA binding of compounds 1, 2 and 3 were obtained following published protocols. All reactions were carried out in 400 μL total volume employing 20 kcpm of a 3′-radiolabelled 250-bp restriction fragment from the plasmid pDEH9 (FIG. 1a) (SEQ. ID. NO: 4). […]
# FIGS. 1b, 1c, and 1d are quantitative DNAse I footprint titration experiments for compounds 1, 2 and 3 on the 3′^−32 P-labeled 250-bp EcoRI/PvuII restriction fragment from the plasmid pDEH9. […]
# The DNA-binding properties of the compounds 1-3 were investigated by quantitative DNase 1 footprinting assays. […]
# [8] = target: T4, Drosophila extradenticle (Exd) protein comprising the homeodomain and the extended fourth helix (residues … (Drosophila, UniProt P40427 238-324)); assay: EMSA, Exd on DNA with and without compound 2
# T4 sequence (looked up): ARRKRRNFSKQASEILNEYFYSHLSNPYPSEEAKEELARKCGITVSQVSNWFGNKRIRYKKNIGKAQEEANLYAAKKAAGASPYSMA
# Description: (§5) The gels were run at 4° C./185 V. Gels were dried, exposed to a phosphorimager screen, and visualized using a Molecular Dynamics phosphorimager.
# (§6) A 47-base-pair duplex DNA with one cognate site was incubated with saturating concentrations (50 nM) of each compound.
# [9] = target: T4, Drosophila extradenticle (Exd) protein …; assay: EMSA, recruitment of Exd to its cognate DNA site by DNA-bound compound 2 compared with Ubx
# Description: (§7) Upon addition of the polyamide to 1 pM DNA, the samples were incubated at 25 °C. for 30 minutes in a 20 μL reaction. […] A 9% acrylamide/3% glycerol gel was pre-run for 15 min prior to loading. In each lane 15 μL of a 20 μL reaction were loaded while the gel was running to prevent the samples from being diluted. The gels were run at 4° C./185 V. Gels were dried, exposed to a phosphorimager screen, and visualized using a Molecular Dynamics phosphorimager.
# as §6
# [10] = target: T4, Drosophila extradenticle (Exd) protein …; assay: EMSA, compared with Exd on the Ubx-DNA complex
# Description: as §7, §6
# [11] = target: T4, Drosophila extradenticle (Exd) protein …; assay: EMSA, Exd titrated on the DNA/compound 2 binary complex (ternary complex), 4 °C; Exd (residues 238-324) on the DNA/compound 2 complex, EMSA
# Description: as §5, §6
# [12] = target: T4, Drosophila extradenticle (Exd) protein …; assay: EMSA (gel shift), 32P-labelled duplex DNA pre-bound with 50 nM compound 3, Exd titrated, 4 °C
# Description: as §7, §6
# [13] = relative to matched site TGGTCA
molecule,measurement,setting,value
"Linker 8: Example 7 polyamide-FYPWM conjugate with linker 8, lysine linker, ~2.5 Å (FYPWMK; also: conjugated to polyamide via linker 8)",positioning of the test compound with respect to its hydrophobic docking site on the surface of Exd,[1],do not optimally position the test compound
"Linker 2: Example 7 polyamide-FYPWM conjugate with linker 2, 10-atom linker, ~11 Å (FYPWMK; also: conjugated to polyamide via linker 2)",ability to recruit Exd,[1],recruit Exd effectively
50 bp duplex with single optimal polyamide site and adjacent Exd site (Example 7),Kd,"[2]; linker 1 (PEG), 4 C, much reduced at higher temperature",0.6 nM
same,Kd,"[2]; linker 4, 4 C, less than 5-fold decrease at 37 C",0.08 nM
"Linker 1: Example 7 polyamide-FYPWM conjugate with linker 1, defined 28-atom polyethylene glycol linker, ~33 Å (FYPWMK; also: conjugated to polyamide via linker 1)",ability to recruit Exd,[1],recruit Exd effectively
same,binding affinity (Exd recruitment),"[1]; higher temperatures (23° C., 37° C.)",dramatically reduced binding affinity
Cmpd 3 (FYPAAKG),ability to recruit Exd to its cognate DNA site (Exd binding),[3],No binding was observed; also recorded: Neither compound 3 nor 1 showed any ability to recruit Exd
same,ability to stabilize Exd binding to the adjacent cognate DNA site (TGAT),"[1]; 50 nM conjugate pre-incubated with target DNA, data not shown","Neither the parent polyamide lacking the YPWM hook, nor the polyamide bearing an altered hook (FYPAAK) (SEQ. ID. NO: 14) was able to stabilize Exd binding"
same,"Relative specificity (square brackets), TGGCCA",[4]; [13],14
same,Kd,"[4]; single base pair mismatch site, 22° C., TKMC buffer, read-out: Equilibrium Dissociation Constants Kd, TGGCCA",12 ± 5 nM
same,"Relative specificity (square brackets), AGCTCA",[5]; [13],16
same,Kd,"[5]; single base pair mismatch site, 22° C., TKMC buffer, read-out: Equilibrium Dissociation Constants Kd, AGCTCA",14 ± 5 nM
same,"Relative specificity (square brackets), TGGGCA",[6]; [13],116
same,Kd,"[6]; single base pair mismatch site, 22° C., TKMC buffer, read-out: Equilibrium Dissociation Constants Kd, TGGGCA",≥ 0.1 nM
same,Kd,[7],0.86 ± 0.32 nM
"Linker 4: Example 7 polyamide-FYPWM conjugate with linker 4, 7-atom linker, ~7 Å (FYPWMK; also: conjugated to polyamide via linker 4)",ability to recruit Exd,[1],recruit Exd effectively
"Linker 7: Example 7 polyamide-FYPWM conjugate with linker 7, no lysine residue (also: conjugated to polyamide via linker 7)",positioning of the test compound with respect to its hydrophobic docking site on the surface of Exd,[1],do not optimally position the test compound
"Linker 6: Example 7 polyamide-FYPWM conjugate with linker 6, no lysine residue (not fully specified (C-terminus); also: joined via linker 7 (no lysine) to hairpin polyamide)",ability to recruit Exd in comparison to the compound using linker 5,[1]; absence of the lysine residue,did not appreciably alter
"Ac-FYPWMKG (not fully specified (C-terminus); printed as Ac-Phe-Tyr-Pro-Trp-Met-Lys-Gly-; also: C-terminal Gly amide-bonded to propylamine side chain of polyamide 1, Peptide-polyamide conjugate; The peptide carries the Hox YPWM motif; also called conjugate 2; polyamide 2) [Compound 2: hairpin polyamide 1 conjugated to Ac-Phe-Tyr-Pro-Trp-Met-Lys-Gly-]",fold improvement of the affinity of Exd for its cognate site against DNA alone,[8],≥ 200 fold
same,"fold lower concentration required to recruit Exd, against its natural Hox partner (Ubx)",[9],20 fold
same,fold of Kd of Exd against that for the DNA-Ubx complex,[10],2 fold
same,Kd,[11],4.4 nM
"Ac-FYPAAKG (not fully specified (C-terminus); printed as Ac-Phe-Tyr-Pro-Ala-Ala-Lys-Gly-; also: C-terminal Gly amide-bonded to propylamine side chain of polyamide 1, Non-functional (Trp-Met to Ala-Ala) control conjugate; also called conjugate 3; polyamide 3) [Compound 3: hairpin polyamide 1 conjugated to Ac-Phe-Tyr-Pro-Ala-Ala-Lys-Gly-]",binding result,[12],no binding (tested: 100 nM)
